Data taken from publication PMC5692476, “Effects of Periplasmic Chaperones and Membrane Thickness on BamA-Catalyzed Outer-Membrane Protein Folding” (Journal of Molecular Biology, 2017).
Several values for one entry are separate records, joined by “and”; a condition that tells them apart may be missing. Identical values can stand only once.

Tests used:
OmpC (Escherichia coli) = OmpC (Escherichia coli) (UniProt P06996); assay: FRET; conditions: cited from earlier work
[1] = target: T1, transmembrane domain of OmpA (tOmpA) (E. coli, UniProt P0A910 22-192); assay: native MS; nano-ESI; proteins alone or pre-mixed 1:1; tOmpA diluted from 8 M urea into Skp or SurA (all 1 μM final, 0.2 M urea, 50 mM glycine–NaOH pH 9.5), 5 min at room temperature, then buffer exchange into 200 mM ammonium acetate pH 10; conditions: both partners purified
T1 construct: 171-residue transmembrane (beta-barrel) domain of OmpA; Diluted from a denatured state in 8 M urea into the chaperone solution; PDB 1QJP, used for the simulations, is the same domain with mutated residues
T1 sequence (looked up): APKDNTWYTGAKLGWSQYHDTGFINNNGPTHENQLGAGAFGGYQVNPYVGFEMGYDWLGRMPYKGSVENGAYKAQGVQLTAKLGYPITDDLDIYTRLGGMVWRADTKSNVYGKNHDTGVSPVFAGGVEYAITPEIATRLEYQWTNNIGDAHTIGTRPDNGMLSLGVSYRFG

[2] = target: Cys-tOmpA labeled with Alexa Fluor 488 (E. coli); assay: MST; 100 nM Alexa Fluor 488-labeled Cys-tOmpA, SurA 100 μM–3 nM, 0.25 M urea, 50 mM glycine–NaOH pH 9.5; Monolith NT.115; fit to the Hill equation; apparent
[3] = target: T2, SurA (Escherichia coli), P0ABZ6; assay: native MS; nano-ESI; proteins alone or pre-mixed 1:1; tOmpA diluted from 8 M urea into Skp or SurA (all 1 μM final, 0.2 M urea, 50 mM glycine–NaOH pH 9.5), 5 min at room temperature, then buffer exchange into 200 mM ammonium acetate pH 10; conditions: remark: other sources report otherwise
T2 chain: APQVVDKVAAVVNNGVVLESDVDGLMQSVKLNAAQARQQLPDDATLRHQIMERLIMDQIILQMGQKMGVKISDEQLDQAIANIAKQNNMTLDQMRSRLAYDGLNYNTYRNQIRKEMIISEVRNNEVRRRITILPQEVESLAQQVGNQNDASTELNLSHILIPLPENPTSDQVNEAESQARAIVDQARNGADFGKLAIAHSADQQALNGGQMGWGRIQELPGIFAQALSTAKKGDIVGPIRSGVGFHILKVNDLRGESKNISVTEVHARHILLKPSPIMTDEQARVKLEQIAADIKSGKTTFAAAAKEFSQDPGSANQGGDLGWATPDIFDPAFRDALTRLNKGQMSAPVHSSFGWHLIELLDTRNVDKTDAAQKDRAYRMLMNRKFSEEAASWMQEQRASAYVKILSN

Sequence of OmpC (Escherichia coli) (P06996 22-367): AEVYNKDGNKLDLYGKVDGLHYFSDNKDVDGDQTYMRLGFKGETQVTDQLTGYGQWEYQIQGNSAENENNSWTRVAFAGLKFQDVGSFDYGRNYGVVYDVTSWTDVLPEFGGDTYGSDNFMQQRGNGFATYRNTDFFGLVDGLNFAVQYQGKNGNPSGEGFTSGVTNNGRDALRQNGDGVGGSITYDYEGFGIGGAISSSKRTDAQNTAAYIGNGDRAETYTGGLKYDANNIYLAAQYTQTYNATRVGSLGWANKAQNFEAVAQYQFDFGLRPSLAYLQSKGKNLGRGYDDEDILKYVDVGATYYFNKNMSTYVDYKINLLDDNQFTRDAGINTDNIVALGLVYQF

Molecule	Kd (OmpC (Escherichia coli))	stoichiometry N [1]	Kd [2]	stoichiometry N [3]
SurA (from UniProt P0ABZ6)	106 nM			
SurA (natural protein, Escherichia coli, UniProt P0ABZ6 21-428, looked up, SurA, periplasmic chaperone of Escherichia coli; Probably the mature protein without its signal peptide (surmised); also called Escherichia coli periplasmic chaperone SurA) APQVVDKVAAVVNNGVVLESDVDGLMQSVKLNAAQARQQLPDDATLRHQIMERLIMDQIILQMGQKMGVKISDEQLDQAIANIAKQNNMTLDQMRSRLAYDGLNYNTYRNQIRKEMIISEVRNNEVRRRITILPQEVESLAQQVGNQNDASTELNLSHILIPLPENPTSDQVNEAESQARAIVDQARNGADFGKLAIAHSADQQALNGGQMGWGRIQELPGIFAQALSTAKKGDIVGPIRSGVGFHILKVNDLRGESKNISVTEVHARHILLKPSPIMTDEQARVKLEQIAADIKSGKTTFAAAAKEFSQDPGSANQGGDLGWATPDIFDPAFRDALTRLNKGQMSAPVHSSFGWHLIELLDTRNVDKTDAAQKDRAYRMLMNRKFSEEAASWMQEQRASAYVKILSN		1 and 2	1800 nM	2
Skp (natural protein, Escherichia coli, UniProt P0AEU7 21-161, looked up, Skp, periplasmic chaperone of Escherichia coli; Probably the mature protein without its signal peptide (surmised); also called Escherichia coli periplasmic chaperone Skp) ADKIAIVNMGSLFQQVAQKTGVSNTLENEFKGRASELQRMETDLQAKMKKLQSMKAGSDRTKLEKDVMAQRQTFAQKAQAFEQDRARRSNEERGKLVTRIQTAVKSVANSQDIDLVVDANAVAYNSSDVKDITADVLKQVK		1		
